Results on three substances are retold here after patent US11407819B2, “Compositions and use of a fibrinogen binding motif present in EFB and COA for therapeutics and vaccines against Staphylococcus aureus” (priority 2013, dated 2022).

Test [1] has as its target T1, rCoa-C binding to Fg (Homo sapiens, UniProt P02671+P02675+P02679).
T1 construct: full-length human Fibrinogen (diluted in PBS, Enzyme research); purchased Enzyme research; host or cells: Coa probe made in E. coli BL21
T1 sequence (P02671 20-629 limits assumed): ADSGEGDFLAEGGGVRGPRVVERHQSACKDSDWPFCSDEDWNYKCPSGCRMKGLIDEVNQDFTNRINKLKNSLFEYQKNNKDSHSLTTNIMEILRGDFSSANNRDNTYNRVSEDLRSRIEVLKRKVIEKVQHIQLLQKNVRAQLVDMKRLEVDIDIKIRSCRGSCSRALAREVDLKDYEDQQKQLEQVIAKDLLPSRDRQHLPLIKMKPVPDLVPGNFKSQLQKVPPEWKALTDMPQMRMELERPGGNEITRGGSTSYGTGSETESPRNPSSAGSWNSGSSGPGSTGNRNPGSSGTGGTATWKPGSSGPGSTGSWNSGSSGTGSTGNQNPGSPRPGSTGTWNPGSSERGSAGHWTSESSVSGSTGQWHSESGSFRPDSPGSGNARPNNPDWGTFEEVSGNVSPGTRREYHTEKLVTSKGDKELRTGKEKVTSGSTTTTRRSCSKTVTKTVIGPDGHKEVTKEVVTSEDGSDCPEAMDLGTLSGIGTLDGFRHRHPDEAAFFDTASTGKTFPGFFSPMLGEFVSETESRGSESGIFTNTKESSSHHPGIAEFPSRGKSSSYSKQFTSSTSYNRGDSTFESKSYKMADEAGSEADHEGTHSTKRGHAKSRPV
T1 sequence (P02675 31-491): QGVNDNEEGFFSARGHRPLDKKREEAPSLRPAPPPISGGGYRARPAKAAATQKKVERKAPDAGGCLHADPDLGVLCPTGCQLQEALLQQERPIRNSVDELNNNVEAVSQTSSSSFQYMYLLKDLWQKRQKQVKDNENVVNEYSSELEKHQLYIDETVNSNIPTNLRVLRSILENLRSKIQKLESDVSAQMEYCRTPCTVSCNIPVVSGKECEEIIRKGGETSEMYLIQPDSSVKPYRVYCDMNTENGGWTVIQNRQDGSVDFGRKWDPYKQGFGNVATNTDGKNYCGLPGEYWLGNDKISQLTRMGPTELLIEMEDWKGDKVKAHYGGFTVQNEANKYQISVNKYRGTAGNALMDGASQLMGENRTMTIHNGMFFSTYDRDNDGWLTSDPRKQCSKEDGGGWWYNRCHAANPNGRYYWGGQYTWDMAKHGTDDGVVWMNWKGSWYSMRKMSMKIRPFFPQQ
T1 sequence (P02679 27-453): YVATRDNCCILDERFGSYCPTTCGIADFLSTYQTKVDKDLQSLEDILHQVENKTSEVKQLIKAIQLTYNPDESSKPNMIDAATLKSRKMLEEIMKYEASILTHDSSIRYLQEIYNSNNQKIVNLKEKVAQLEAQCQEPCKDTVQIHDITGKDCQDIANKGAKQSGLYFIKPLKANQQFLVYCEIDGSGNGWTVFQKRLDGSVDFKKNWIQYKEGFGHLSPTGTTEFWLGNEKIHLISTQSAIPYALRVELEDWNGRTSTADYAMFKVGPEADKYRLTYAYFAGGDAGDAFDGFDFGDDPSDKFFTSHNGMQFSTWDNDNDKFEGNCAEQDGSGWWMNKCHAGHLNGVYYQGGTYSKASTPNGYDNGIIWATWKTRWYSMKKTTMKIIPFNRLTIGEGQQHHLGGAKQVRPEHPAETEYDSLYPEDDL
As to the kind of experiment: Competition ELISA, peptide inhibition of rCoa-C (Coa 311-636) binding to Fg. The following applies: increasing concentrations of peptides; 4 nM GST fusion protein. The procedure: The residues in Coa-RI important for fibrinogen binding. FIG. 12A is a panel of coa-RI variant peptides were synthesized where each residue in the sequence is individually replaced with Ala (or Ser when the native a.a. is Ala). […] Wells were coated with 0.25 μg/well Fg. Labels -1, -2, -3, -4, -5, -6, -7, -8, -9, -10, -11, -12, -13, -14, -15, -16, -17, -18, -19, -20, -21, -22, -23, -24, -25, -26, -27 refer to Coa-RI-1, Coa-RI-2, Coa-RI-3, Coa-RI-4, Coa-RI-5, Coa-RI-6, Coa-RI-7, Coa-RI-8, Coa-RI-9, Coa-RI-10, Coa-RI-11, Coa-RI-12, Coa-RI-13, Coa-RI-14, Coa-RI-15, Coa-RI-16, Coa-RI-17, Coa-RI-18, Coa-RI-19, Coa-RI-20, Coa-RI-21, Coa-RI-22, Coa-RI-23, Coa-RI-24, Coa-RI-25, Coa-RI-26, Coa-RI-27, respectively. FIG. 12C is a comparison of amino acid sequence of Efb-O with Coa-RI. FIG. 12D is a Fg-binding register of tandem repeats in Coa. Bold letters denote the residues that are important for Fg binding. Binding of a fixed concentration of rCoa-C (2 nM) to immobilized Fg was determined in the presence of a fixed concentration of these peptides (50 uM) (FIG. 12B). […]
FIG. 13A is a schematic presentation of Coa peptides. […] The Fg binding activities of these peptides were then investigated in a competition ELISA where the binding of rCoa-C to Fg coated microtiter wells were determined in the presence of increasing concentrations of peptide (FIG. 13B). […]
(ELISA stands for enzyme-linked immunosorbent assay.)

The target in test [2] is T2, Fibrinogen (Homo sapiens, UniProt P02671+P02675+P02679).
T2 sequence (P02671 20-629 limits assumed): T1 sequence (P02671 20-629 limits assumed)
T2 sequence (P02675 31-491): T1 sequence (P02675 31-491)
T2 sequence (P02679 27-453): T1 sequence (P02679 27-453)
Nature of the test: Solid phase binding assay, fibrinogen binding to coated DC2, DC2-Fg, Efb. The following applies: read-out: apparent KD of fibrinogen binding. The procedure:
Solid phase binding assay-: Microtiter wells were coated with 1 μg of DC2, DC2-Fg, or Efb overnight at 4° C. to assess fibrinogen adhesion to DC proteins. Coated wells were blocked with 4 wt % BSA in PBS for 1 hour at room temperature. Fibrinogen was added to each protein-coated well in a serial dilution from 100 to 0 μg/well (0.3 to 0 μM). After 1 hour of incubation at room temperature, a sheep anti-fibrinogen antibody was applied to the wells (1:1000 dilution) for 1 hour at room temperature. An HRP-labelled secondary antibody to sheep was applied to the wells for 1 hour at room temperature, and […]™ OPD was utilized to detect bound fibrinogen via an absorbance reading at 450 nm on a THERMOMAX™ plate reader. Studies were performed in triplicate, and plates were washed three times between each step with 200 μl of PBS with 0.1 vol % TWEEN® 20.

The subject of test [3] is C2C12-α1 and C2C12-α2 cells (human integrin α1 or α2 subunits). As to the kind of experiment: C2C12 cell adhesion to coated DC proteins. It is filed as cell-based, mouse. The following applies: 10 μg coated protein; 1 hour. The procedure:
Integrin interactions with DC2-Fg—A11 cell culture supplies were purchased from Life Technologies and used as received unless otherwise noted. […] Mouse myoblast C2C12, C2C12-α1, and C2C12-α2 cells were cultured in Dulbecco's modified Eagle's medium (DMEM) with 10 vol % fetal bovine serum (FBS) and 1 vol % penicillin-streptomycin, 1 mg ml^−1 geneticin, or 10 μg ml^−1 puromycin, respectively. To assess C2C12 cell adhesion, 48 well tissue culture polystyrene (TCPS) plates were coated with 10 μg of DC1 (negative control—no integrin binding sites), DC2, DC2-Fg, or collagen type I (positive control) overnight at 4° C. Proteins were coated in triplicate for each cell type. Wells were blocked with 4 wt % bovine serum albumin (BSA) in PBS for 1 hour at room temperature and rinsed with sterile PBS. Cells were adapted to serum-free media (DMEM with 1 mM CaCl2, 1 mM MgCl2, and appropriate antibiotic) for 12 hours prior to trypsinization and seeding at 5,000 cells cm^−1. […] Lysates from samples and from known standards were transferred to a 96 well plate, and cell numbers were measured with the CYTOTOX 96® NON-RADIOACTIVE CYTOTOXICITY ASSAY. […] Then, 50 μl of stop solution was added to each well, and the absorbance was read at 490 nm. Cell numbers were quantified using standards of known cell numbers for each cell line.

With “sCoa-RI2: 27-residue overlapping Coa repeat I peptide (AYNVTTHANGQVSYGARPTYKKPSETN)”, the “inhibition of rCoa-C binding to fibrinogen by overlapping Coa R peptides” value in test [1] is “some inhibitory activity”. Regarding “Efb-O: Fg binding motif Efb 68-98 (SEQ ID NO:1); coated comparator in b135 is Efb”, the Kd in test [2] is approximately 1 nM. For “DC2-Fg: DC2 with Fg binding motif Efb-O inserted after position 301 Gln (KYIKFKHDYNILEFNDGTFEYGARPQFNKPA; left off: things letters cannot carry; small tags and cut ends)”, the “C2C12-α1 and C2C12-α2 adhesion” value in test [3] is “significantly increased C2C12-α1 and C2C12-α2 adhesion relative to DC2”. The Kd in test [2] is approximately 10 nM.
